8 molecules from US6440696 (NEW ENGLAND MEDICAL CENTER, dated 2002) can be followed below.

To fix the notation:
T1: pGAD10 two-hybrid clone encoding the 476 carboxyl-terminal amino acids of E6-AP (human, UniProt Q05086 400-875)
T1 construct: domain: 476 carboxyl-terminal amino acids; also called one weakly positive clone
T1 sequence: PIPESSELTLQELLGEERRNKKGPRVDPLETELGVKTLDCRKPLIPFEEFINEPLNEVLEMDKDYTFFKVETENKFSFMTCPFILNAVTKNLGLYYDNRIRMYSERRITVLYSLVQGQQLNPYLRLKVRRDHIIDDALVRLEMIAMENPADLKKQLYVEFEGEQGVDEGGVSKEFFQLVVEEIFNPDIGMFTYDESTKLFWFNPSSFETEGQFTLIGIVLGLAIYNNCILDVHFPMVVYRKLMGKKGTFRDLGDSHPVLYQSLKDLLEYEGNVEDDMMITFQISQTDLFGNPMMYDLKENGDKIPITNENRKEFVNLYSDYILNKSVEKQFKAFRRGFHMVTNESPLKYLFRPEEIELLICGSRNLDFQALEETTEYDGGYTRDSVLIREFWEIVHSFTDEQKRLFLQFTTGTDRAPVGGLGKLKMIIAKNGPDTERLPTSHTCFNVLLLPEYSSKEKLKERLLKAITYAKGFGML

B1: HPV16 E6 protein (other)
chain: MFQDPQERPRKLPQLCTELQTTIHDIILECVYCKQQLLRREVYDFAFRDLCIVYRDGNPYAVCDKCLKFYSKISEYRHYCYSLYGTTLEQQYNKPLCDLLIRCINCQKPLCPEEKQRHLDKKQRFHNIRGRWTGRCMSCCRSSRTRRETQL
notes: also called high-risk HPV16 E6; wild-type E6
B2: pGAD10 two-hybrid clone encoding the 194 carboxyl terminal amino acid residues of E6TP1 (other)
chain: NDVLFSSTYPSLPKSLPLRRPSYTLGMKSLHGEFSASDSSLTDIQETRRQPMPDPGLMPLPDTAADLDWSNLVDAAKAYEVQRASFFAASDENHRPLSAASNSDQLEDQALAQMKPYSSSKDSSPTLASKVDQLEGMLKMLREDLKKEKEDKAHLQAEVQHLREDNLRLQEESQNASDKLKKFTEWVFNTIDMS
notes: also called set of eleven identical strongly positive clones
B3: pGBT9-E6 bait (GAL4 fused to HPV16 E6 residues 2-158) (other)
chain: MKLLSSIEQACDICRLKKLKCSKEKPKCAKCLKNNWECRYSPKTKRSPLTRAHLTEVESRLERLEQLFLLIFPREDLDMILKMDSLQDIKALLTGLFVQDNVNKDAVTDRLASVETDMPLTLRQHRISATSSSEESSNKGQRQLTVSHQKRTAMFQDPQERPRKLPQLCTELQTTIHDIILECVYCKQQLLRREVYDFAFRDLCIVYRDGNPYAVCDKCLKFYSKISEYRHYCYSLYGTTLEQQYNKPLCDLLIRCINCQKPLCPEEKQRHLDKKQRFHNIRGRWTGRCMSCCRSSRTRRETQL
notes: also called pGB9-E6
B4: pGAD10 two-hybrid clone encoding the 378 carboxyl terminal amino acid residues of E6TP1 (other)
chain: SSRHSASPVVFTSARSSPKEELHPAAPSQLAPSFSSSSSSSSGPRSFYPRQGATSKYLIGWKKPEGTINSVGFMDTRKRHQSDGNEIAHTRLRASTRDLRASPKPTSKSTIEEDLKKLIDLESPTPESQKSFKFHALSSPQSPFPSTPTSRRALHRTLSDESIYNSQREHFFTSRASLLDQALPNDVLFSSTYPSLPKSLPLRRPSYTLGMKSLHGEFSASDSSLTDIQETRRQPMPDPGLMPLPDTAADLDWSNLVDAAKAYEVQRASFFAASDENHRPLSAASNSDQLEDQALAQMKPYSSSKDSSPTLASKVDQLEGMLKMLREDLKKEKEDKAHLQAEVQHLREDNLRLQEESQNASDKLKKFTEWVFNTIDMS
notes: also called one distinct strongly positive clone; longer yeast two-hybrid cDNA clone
B5: murine p53/GAL4 DNA binding domain fusion protein (pVA3) (other)
chain: MKLLSSIEQACDICRLKKLKCSKEKPKCAKCLKNNWECRYSPKTKRSPLTRAHLTEVESRLERLEQLFLLIFPREDLDMILKMDSLQDIKALLTGLFVQDNVNKDAVTDRLASVETDMPLTLRQHRISATSSSEESSNKGQRQLTVSPVTETPGPVAPAPATPWPLSSFVPSQKTYQGNYGFHLGFLQSGTAKSVMCTYSPPLNKLFCQLAKTCPVQLWVSATPPAGSRVRAMAIYKKSQHMTEVVRRCPHHERCSDGDGLAPPQHLIRVEGNLYPEYLEDRQTFRHSVVVPYEPPEAGSEYTTIHYKYMCNSSCMGGMNRRPILTIITLEDSSGNLLGRDSFEVRVCACPGRDRRTEEENFRKKEVLCPELPPGSAKRALPTCTSASPPQKKKPLDGEYFTLKIRGRKRFEMFRELNEALELKDAHATEESGDSRAHSSYLKTKKGQSTSRHKKTMVKKVGPDSD
notes: Control bait from Clontech; also called murine p53 fused to Gal4 in pGBT9
B6: human lamin/GAL4 DNA binding domain fusion protein (pLam 5') (other)
chain: MKLLSSIEQACDICRLKKLKCSKEKPKCAKCLKNNWECRYSPKTKRSPLTRAHLTEVESRLERLEQLFLLIFPREDLDMILKMDSLQDIKALLTGLFVQDNVNKDAVTDRLASVETDMPLTLRQHRISATSSSEESSNKGQRQLTVSSEEVVSREVSGIKAAYEAELGDARKTLDSVAKERARLQLELSKVREEFKELKARNTKKEGDLIAAQARLKDLEALLNSKEAALSTALSEKRTLEGELHDLRGQVAKLEAALGEAKKQLQDEMLRRVDAENRLQTMKEELDFQKNIYSEELRETKRRHETRLVEID
notes: Control bait from Clontech; also called human lamin fused to Gal4 in pGBT9
B7: HPV6 E6 protein (other)
chain: MESANASTSATTIDQLCKTFNLSMHTLQINCVFCKNALTTAEIYSYAYKHLKVLFRGGYPYAACACCLEFHGKINQYRHFDYAGYATTVEEETKQDILDVLIRCYLCHKPLCEVEKVKHILTKARFIKLNCTWKGRCLHCWTTCMEDMLP
notes: also called low-risk HPV6 E6
B8: HPV11 E6 protein (other)
chain: MESKDASTSATSIDQLCKTFNLSLHTLQIQCVFCRNALTTAEIYAYAYKNLKVVWRDNFPFAACACCLELQGKINQYRHFNYAAYAPTVEEETNEDILKVLIRCYLCHKPLCEIEKLKHILGKARFIKLNNQWKGRCLHCWTTCMEDLLP

In assay [1] the target is T2, GST (UniProt P08515 1-218 = GST).
T2 construct: Negative control; also called GST alone
T2 sequence (P08515 whole entry): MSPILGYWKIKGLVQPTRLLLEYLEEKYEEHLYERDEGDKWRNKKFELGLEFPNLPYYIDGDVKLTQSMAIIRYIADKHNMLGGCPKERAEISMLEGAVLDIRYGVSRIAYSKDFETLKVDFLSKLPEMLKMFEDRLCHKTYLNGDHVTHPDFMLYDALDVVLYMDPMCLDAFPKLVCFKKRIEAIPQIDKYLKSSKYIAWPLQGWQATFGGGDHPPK
The assay is described as follows: GST pull-down of in vitro translated 35S-labelled E6.

Assay [2] addresses B6. The assay is described as follows: yeast two-hybrid, control bait.
Assay [3] concerns the target B5. Description: yeast two-hybrid, control bait.
Assay [4] concerns the target B3. Description: yeast two-hybrid: growth on Trp-, Leu-, His- medium and beta-gal activity.
Assay [5] deals with B4. The description is as above.
Assay [6] concerns the target T1, pGAD10 two-hybrid clone encoding the …. Description: yeast two-hybrid, control bait.
The target in assay [7] is B4. The assay is described as follows: yeast two-hybrid, control bait.

Turning to B1, in assay [1], the binding result is reported as “no binding (tested: 1 µg GST fusion protein)”.

In the case of B2, the binding result is reported as “no binding” in assay [2], “no binding” in assay [3] and “binds” in assay [4].

Turning to B3, the binding result in assay [5] is “binds”.

As to B4, the binding result in assay [3] is recorded as “no binding”.

Turning to B5, the binding result in assay [6] was “no binding”.

For the molecule B6, the binding result in assay [6] and in assay [7] was “no binding” in each case.

With B7, in assay [1], the binding result is “no binding (tested: 1 µg GST fusion protein)”.

As to B8, the binding result in assay [1] is listed as “no binding (tested: 1 µg GST fusion protein)”.
